Laboratory results reported in publication PMC6401464 (Journal of Virology, 2019).

Columns and labels:
[1] = target: T1, GI.1 P domain (Norwalk virus) (Norwalk virus (human norovirus GI.1), UniProt Q83884); experiment: ELISA; direct ELISA; P domain or VLPs coated on MaxiSorp plates, serially diluted Nanobodies (1:1 in PBS, starting at 100 μg/ml) for 1 h at 37°C, detected with HRP-conjugated anti-polyhistidine antibody; cutoff OD490 0.15; details: both partners purified
T1 construct: also called GI.1 capsid-protruding (P) domain; GI P domain

[2] = target: T1, GI.1 P domain (Norwalk virus); experiment: ITC; Nano-7 (150 μM) injected in 0.5 μl aliquots into GI.1 P domain (15 μM), PBS, 35°C, one-site binding model; details: both partners purified
[3] = target: T1, GI.1 P domain (Norwalk virus); experiment: ITC; Nano-94 (150 μM) injected in 2 μl aliquots into GI.1 P domain (15 μM), PBS, 25°C, one-site binding model; details: both partners purified
[4] = target: T1, GI.1 P domain (Norwalk virus); experiment: ITC; Nano-62 (150 μM) injected in 2 μl aliquots into GI.1 P domain (15 μM), PBS, 30°C, one-site binding model; details: both partners purified
crystal structure = target: the molecule itself; experiment: crystal structure

B1: Nano-7 (VHH)
VHH: QVQLQESGGGLVQAGGSLRLSCAVSGRTFSNYYSGWFRQAPGKEREFLASIRWSDSTTNYADSVKGRFTISRDTAKNTVYLQMNSLKLEDTAVYHCAARRLATYDYWGQGTQVTVSS
notes: also called Nanobody 7
detection level (ELISA, cutoff OD490 0.15) [1]: 0.2 µg/mL | Kd [2]: 0.163 nM | stoichiometry N [2]: ~1

B2: Nano-94 (VHH)
VHH: QVQLQESGGGLVQAGGSLRLSCAASGRMFSINSMGWYRQAPGKERELVATISEAGTTTYADSVRGRFTIARDNAKNTVYLQMNSLNPEDTAVYYCNAYIQLDSTIWFRAYWGQGTQVTVSS
notes: also called Nanobody 94
detection level (ELISA, cutoff OD490 0.15) [1]: 0.1 µg/mL | Kd [3]: 43.4 nM | stoichiometry N [3]: ~1

B3: Nano-62 (VHH)
VHH: QVQLQESGGGLVMTGGSLRLSCAVSGRTIDVSVMAWFRQAPGKEREFVSGMRWSGMTTYSADSVKDRFTISRDKTKNTVYLQMNSLKPEDTAVYYCAARSRFIVGVPQARDLYDYWGQGTQVTVSS
notes: also called Nanobody 62
detection level (ELISA, cutoff OD490 0.15) [1]: 0.1 µg/mL | Kd [4]: 4.58 nM | stoichiometry N [4]: ~1

B4: GI.1 P domain (Norwalk virus) (domain or fragment)
chain: EQKTRPFTLPNLPLSSLSNSRAPLPISSMGISPDNVQSVQFQNGRCTLDGRLVGTTPVSLSHVAKIRGTSNGTVINLTELDGTPFHPFEGPAPIGFPDLGGCDWHINMTQFGHSSQTQYDVDTTPDTFVPHLGSIQANGIGSGNYVGVLSWISPPSHPSGSQVDLWKIPNYGSSITEATHLAPSVYPPGFGEVLVFFMSKMPGPGAYNLPCLLPQEYISHLASEQAPTVGEAALLHYVDPDTGRNLGEFKAYPDGFLTCVPNGASSGPQQLPINGVFVFVSWVSRFYQLKPVGT
notes: also called GI.1 capsid-protruding (P) domain; GI P domain
binding result (crystal structure): binds
